# Source: publication PMC11480844 (2024)
# B1: H2-Kb / Ed31 (parent complex)
# chain 1: GQQVQQSPASLVLQEGENAELQCNFSTSLNSMQWFYQRPGGSLVSLFYNPSGTKHSGRLTSTTVIKERRSSLHISSSQTTDSGTYLCALEGNYAQGLTFGLGTRVSVFP
# chain 2: ETAVFQTPNYHVTQVGNEVSFNCKQTLGHDTMYWYKQDSKKLLKIMFSYNNKQLIVNETVPRRFSPQSSDKAHLNLRIKSVEPEDSAVYLCASRSAGEQYFGPGTRLTVL
# chain 3: not shown
# chain 4: IQKTPQIQVYSRHPPENGKPNILNCYVTQFHPPHIEIQMLKNGKKIPKVEMSDMSFSKDWSFYILAHTEFTPTETDTYACRVKHDSMAEPKTVYWDRDM
# chain 5: SIINFEKL
# B2: H2-Kb / Ed46 (parent complex)
# chain 1: AQSVTQPDARVTVSEGASLQLRCKYSYFGTPYLFWYVQYPRQGLQLLLKYYPGDPVVQGVNGFEAEFSKSNSSFHLRKASVHWSDWAVYFCAVGRTGGYKVVFGSGTRLLVSP
# chain 2: DSGVVQSPRHIIKEKGGRSVLTCIPISGHSNVVWYQQTLGKELKFLIQHYEKVERDKGFLPSRFSVQQFDDYHSEMNMSALELEDSAMYFCASSPRHSDYTFGSGTRLLVI
# chain 3: not shown
# chain 4: B1 chain 4
# chain 5: SIINFEKL
# Variants of: B1
# Assay: % of reporter cells activated (NFAT-GFP), raw
# Note: test concentration or dose not given here.
row,ratio to parent,Variant
1,0.104,chain 5 K7M
2,0.757,chain 5 S1Q
3,0.498,chain 5 S1W
4,0.898,chain 5 S1M
5,0.163,chain 5 S1N
6,0.0173,chain 5 E6A
7,0.00349,chain 5 E6R
8,0.25,chain 5 E6M
9,0.779,chain 5 L8P
10,0.812,chain 5 L8V
11,0.602,chain 5 L8C
12,0.687,chain 5 L8E
13,0.897,chain 5 I2Q
14,1.07,chain 5 I2C
15,0.851,chain 5 I2R
16,0.863,chain 5 I2W
17,0.829,chain 5 F5W
18,0.821,chain 5 F5L
19,0.917,chain 5 F5M
20,0.529,chain 5 F5G
21,0.859,chain 5 F5V
22,0.892,chain 5 F5H
23,0.127,chain 5 N4F
24,0.375,chain 5 I3D
25,0.982,chain 5 I3V
26,0.355,chain 5 I3W

# Variants of: B2
# Assay: % of reporter cells activated (NFAT-GFP), raw
row,ratio to parent,Variant
1,0.534,chain 5 E6A
2,0.16,chain 5 E6L
3,0.038,chain 5 E6W
4,0.898,chain 5 I2N
5,1.4,chain 5 I2A
6,1.39,chain 5 I2T
7,1.13,chain 5 I2F
8,1.11,chain 5 I2R
9,0.656,chain 5 I2Y
10,0.973,chain 5 S1H
11,0.0395,chain 5 S1N
12,0.278,chain 5 S1T
13,0.0256,chain 5 S1V
14,0.0634,chain 5 S1C
15,0.0427,chain 5 S1P
16,0.746,chain 5 S1A
17,0.613,chain 5 L8C
18,1.07,chain 5 L8I
19,1.09,chain 5 L8K
20,0.861,chain 5 L8A
21,1.07,chain 5 L8Y
22,0.027,chain 5 N4K
23,0.00538,chain 5 N4M
24,0.00841,chain 5 N4P
25,0.00841,chain 5 N4T

row,ratio to parent,Variant
1,0.0186,chain 5 N4Y
2,0.317,chain 5 N4R
3,0.0593,chain 5 N4L
4,0.0119,chain 5 N4W
5,0.2,chain 5 K7I
6,0.0775,chain 5 K7Q
7,0.0252,chain 5 K7C
8,0.00395,chain 5 K7E
9,0.628,chain 5 K7W
10,0.138,chain 5 K7N
11,0.178,chain 5 K7L
12,1.18,chain 5 F5R
13,1.19,chain 5 F5C
14,1.32,chain 5 F5S
15,1.02,chain 5 F5M
16,1.17,chain 5 F5L
17,0.446,chain 5 I3M
18,1.08,chain 5 I3Y
19,0.245,chain 5 I3R
20,0.17,chain 5 I3D
21,0.998,chain 5 I3H
22,0.924,chain 5 I3K
23,0.202,chain 5 I3G
24,0.47,chain 5 I3E
